Bridge positions count the residues as written; N and C are the ends. Square brackets hold non-standard residues; d marks the D form. R8 = C=CCCCCCC[C@@](C)(N)C(=O)O; S5 = C=CCCC[C@](C)(N)C(=O)O
B1: i7-01s-57 (Ac-[Tat]-RRIQ(R8)MEDVLK(S5)RKR-NH2) (peptide)
peptide: Ac-YGRKKRRQRRRRRIQ[R8]MEDVLK[S5]RKR-NH2
modifications: staple 16-23
SMILES: CC[C@H](C)[C@H](NC(=O)[C@H](CCCNC(=N)N)NC(=O)[C@H](CCCNC(=N)N)NC(=O)[C@H](CCCNC(=N)N)NC(=O)[C@H](CCCNC(=N)N)NC(=O)[C@H](CCCNC(=N)N)NC(=O)[C@H](CCC(N)=O)NC(=O)[C@H](CCCNC(=N)N)NC(=O)[C@H](CCCNC(=N)N)NC(=O)[C@H](CCCCN)NC(=O)[C@H](CCCCN)NC(=O)[C@H](CCCNC(=N)N)NC(=O)CNC(=O)[C@H](Cc1ccc(O)cc1)NC(C)=O)C(=O)N[C@@H](CCC(N)=O)C(=O)N[C@]1(C)CCCCCCC=CCCC[C@@](C)(C(=O)N[C@@H](CCCNC(=N)N)C(=O)N[C@@H](CCCCN)C(=O)N[C@@H](CCCNC(=N)N)C(N)=O)NC(=O)[C@H](CCCCN)NC(=O)[C@H](CC(C)C)NC(=O)[C@H](C(C)C)NC(=O)[C@H](CC(=O)O)NC(=O)[C@H](CCC(=O)O)NC(=O)[C@H](CCSC)NC1=O
B2: i7-01s-02 (Ac-[Tat]-RLIQ(R8)REDREK(S5)RAV-NH2) (peptide)
peptide: Ac-YGRKKRRQRRRRLIQ[R8]REDREK[S5]RAV-NH2
modifications: staple 16-23
SMILES: CC[C@H](C)[C@H](NC(=O)[C@H](CC(C)C)NC(=O)[C@H](CCCNC(=N)N)NC(=O)[C@H](CCCNC(=N)N)NC(=O)[C@H](CCCNC(=N)N)NC(=O)[C@H](CCCNC(=N)N)NC(=O)[C@H](CCC(N)=O)NC(=O)[C@H](CCCNC(=N)N)NC(=O)[C@H](CCCNC(=N)N)NC(=O)[C@H](CCCCN)NC(=O)[C@H](CCCCN)NC(=O)[C@H](CCCNC(=N)N)NC(=O)CNC(=O)[C@H](Cc1ccc(O)cc1)NC(C)=O)C(=O)N[C@@H](CCC(N)=O)C(=O)N[C@]1(C)CCCCCCC=CCCC[C@@](C)(C(=O)N[C@@H](CCCNC(=N)N)C(=O)N[C@@H](C)C(=O)N[C@H](C(N)=O)C(C)C)NC(=O)[C@H](CCCCN)NC(=O)[C@H](CCC(=O)O)NC(=O)[C@H](CCCNC(=N)N)NC(=O)[C@H](CC(=O)O)NC(=O)[C@H](CCC(=O)O)NC(=O)[C@H](CCCNC(=N)N)NC1=O
B3: i7-01s-64 (Ac-[Tat]-RLII(R8)QEDVEK(S5)RKR-NH2) (peptide)
peptide: Ac-YGRKKRRQRRRRLII[R8]QEDVEK[S5]RKR-NH2
modifications: staple 16-23
SMILES: CC[C@H](C)[C@H](NC(=O)[C@H](CC(C)C)NC(=O)[C@H](CCCNC(=N)N)NC(=O)[C@H](CCCNC(=N)N)NC(=O)[C@H](CCCNC(=N)N)NC(=O)[C@H](CCCNC(=N)N)NC(=O)[C@H](CCC(N)=O)NC(=O)[C@H](CCCNC(=N)N)NC(=O)[C@H](CCCNC(=N)N)NC(=O)[C@H](CCCCN)NC(=O)[C@H](CCCCN)NC(=O)[C@H](CCCNC(=N)N)NC(=O)CNC(=O)[C@H](Cc1ccc(O)cc1)NC(C)=O)C(=O)N[C@H](C(=O)N[C@]1(C)CCCCCCC=CCCC[C@@](C)(C(=O)N[C@@H](CCCNC(=N)N)C(=O)N[C@@H](CCCCN)C(=O)N[C@@H](CCCNC(=N)N)C(N)=O)NC(=O)[C@H](CCCCN)NC(=O)[C@H](CCC(=O)O)NC(=O)[C@H](C(C)C)NC(=O)[C@H](CC(=O)O)NC(=O)[C@H](CCC(=O)O)NC(=O)[C@H](CCC(N)=O)NC1=O)[C@@H](C)CC
B4: i7-01s-37 (Ac-[Tat]-RLIQ(R8)KEDVEK(S5)RKR-NH2) (peptide)
peptide: Ac-YGRKKRRQRRRRLIQ[R8]KEDVEK[S5]RKR-NH2
modifications: staple 16-23
SMILES: CC[C@H](C)[C@H](NC(=O)[C@H](CC(C)C)NC(=O)[C@H](CCCNC(=N)N)NC(=O)[C@H](CCCNC(=N)N)NC(=O)[C@H](CCCNC(=N)N)NC(=O)[C@H](CCCNC(=N)N)NC(=O)[C@H](CCC(N)=O)NC(=O)[C@H](CCCNC(=N)N)NC(=O)[C@H](CCCNC(=N)N)NC(=O)[C@H](CCCCN)NC(=O)[C@H](CCCCN)NC(=O)[C@H](CCCNC(=N)N)NC(=O)CNC(=O)[C@H](Cc1ccc(O)cc1)NC(C)=O)C(=O)N[C@@H](CCC(N)=O)C(=O)N[C@]1(C)CCCCCCC=CCCC[C@@](C)(C(=O)N[C@@H](CCCNC(=N)N)C(=O)N[C@@H](CCCCN)C(=O)N[C@@H](CCCNC(=N)N)C(N)=O)NC(=O)[C@H](CCCCN)NC(=O)[C@H](CCC(=O)O)NC(=O)[C@H](C(C)C)NC(=O)[C@H](CC(=O)O)NC(=O)[C@H](CCC(=O)O)NC(=O)[C@H](CCCCN)NC1=O
B5: i7-01s-45 (Ac-[Tat]-RLKQ(R8)LEDVEK(S5)RKR-NH2) (peptide)
peptide: Ac-YGRKKRRQRRRRLKQ[R8]LEDVEK[S5]RKR-NH2
modifications: staple 16-23
SMILES: CC(=O)N[C@@H](Cc1ccc(O)cc1)C(=O)NCC(=O)N[C@@H](CCCNC(=N)N)C(=O)N[C@@H](CCCCN)C(=O)N[C@@H](CCCCN)C(=O)N[C@@H](CCCNC(=N)N)C(=O)N[C@@H](CCCNC(=N)N)C(=O)N[C@@H](CCC(N)=O)C(=O)N[C@@H](CCCNC(=N)N)C(=O)N[C@@H](CCCNC(=N)N)C(=O)N[C@@H](CCCNC(=N)N)C(=O)N[C@@H](CCCNC(=N)N)C(=O)N[C@@H](CC(C)C)C(=O)N[C@@H](CCCCN)C(=O)N[C@@H](CCC(N)=O)C(=O)N[C@]1(C)CCCCCCC=CCCC[C@@](C)(C(=O)N[C@@H](CCCNC(=N)N)C(=O)N[C@@H](CCCCN)C(=O)N[C@@H](CCCNC(=N)N)C(N)=O)NC(=O)[C@H](CCCCN)NC(=O)[C@H](CCC(=O)O)NC(=O)[C@H](C(C)C)NC(=O)[C@H](CC(=O)O)NC(=O)[C@H](CCC(=O)O)NC(=O)[C@H](CC(C)C)NC1=O
B6: i7-01s-75 (Ac-[Tat]-RLIY(R8)MEDVEK(S5)RKR-NH2) (peptide)
peptide: Ac-YGRKKRRQRRRRLIY[R8]MEDVEK[S5]RKR-NH2
modifications: staple 16-23
SMILES: CC[C@H](C)[C@H](NC(=O)[C@H](CC(C)C)NC(=O)[C@H](CCCNC(=N)N)NC(=O)[C@H](CCCNC(=N)N)NC(=O)[C@H](CCCNC(=N)N)NC(=O)[C@H](CCCNC(=N)N)NC(=O)[C@H](CCC(N)=O)NC(=O)[C@H](CCCNC(=N)N)NC(=O)[C@H](CCCNC(=N)N)NC(=O)[C@H](CCCCN)NC(=O)[C@H](CCCCN)NC(=O)[C@H](CCCNC(=N)N)NC(=O)CNC(=O)[C@H](Cc1ccc(O)cc1)NC(C)=O)C(=O)N[C@@H](Cc1ccc(O)cc1)C(=O)N[C@]1(C)CCCCCCC=CCCC[C@@](C)(C(=O)N[C@@H](CCCNC(=N)N)C(=O)N[C@@H](CCCCN)C(=O)N[C@@H](CCCNC(=N)N)C(N)=O)NC(=O)[C@H](CCCCN)NC(=O)[C@H](CCC(=O)O)NC(=O)[C@H](C(C)C)NC(=O)[C@H](CC(=O)O)NC(=O)[C@H](CCC(=O)O)NC(=O)[C@H](CCSC)NC1=O
B7: i7-01s-70 (Ac-[Tat]-RLIQ(R8)KGDVEL(S5)RKR-NH2) (peptide)
peptide: Ac-YGRKKRRQRRRRLIQ[R8]KGDVEL[S5]RKR-NH2
modifications: staple 16-23
SMILES: CC[C@H](C)[C@H](NC(=O)[C@H](CC(C)C)NC(=O)[C@H](CCCNC(=N)N)NC(=O)[C@H](CCCNC(=N)N)NC(=O)[C@H](CCCNC(=N)N)NC(=O)[C@H](CCCNC(=N)N)NC(=O)[C@H](CCC(N)=O)NC(=O)[C@H](CCCNC(=N)N)NC(=O)[C@H](CCCNC(=N)N)NC(=O)[C@H](CCCCN)NC(=O)[C@H](CCCCN)NC(=O)[C@H](CCCNC(=N)N)NC(=O)CNC(=O)[C@H](Cc1ccc(O)cc1)NC(C)=O)C(=O)N[C@@H](CCC(N)=O)C(=O)N[C@]1(C)CCCCCCC=CCCC[C@@](C)(C(=O)N[C@@H](CCCNC(=N)N)C(=O)N[C@@H](CCCCN)C(=O)N[C@@H](CCCNC(=N)N)C(N)=O)NC(=O)[C@H](CC(C)C)NC(=O)[C@H](CCC(=O)O)NC(=O)[C@H](C(C)C)NC(=O)[C@H](CC(=O)O)NC(=O)CNC(=O)[C@H](CCCCN)NC1=O
B8: i7-01s-10 (Ac-[Tat]-RLIQ(R8)REDREK(S5)RAR-NH2) (peptide)
peptide: Ac-YGRKKRRQRRRRLIQ[R8]REDREK[S5]RAR-NH2
modifications: staple 16-23
SMILES: CC[C@H](C)[C@H](NC(=O)[C@H](CC(C)C)NC(=O)[C@H](CCCNC(=N)N)NC(=O)[C@H](CCCNC(=N)N)NC(=O)[C@H](CCCNC(=N)N)NC(=O)[C@H](CCCNC(=N)N)NC(=O)[C@H](CCC(N)=O)NC(=O)[C@H](CCCNC(=N)N)NC(=O)[C@H](CCCNC(=N)N)NC(=O)[C@H](CCCCN)NC(=O)[C@H](CCCCN)NC(=O)[C@H](CCCNC(=N)N)NC(=O)CNC(=O)[C@H](Cc1ccc(O)cc1)NC(C)=O)C(=O)N[C@@H](CCC(N)=O)C(=O)N[C@]1(C)CCCCCCC=CCCC[C@@](C)(C(=O)N[C@@H](CCCNC(=N)N)C(=O)N[C@@H](C)C(=O)N[C@@H](CCCNC(=N)N)C(N)=O)NC(=O)[C@H](CCCCN)NC(=O)[C@H](CCC(=O)O)NC(=O)[C@H](CCCNC(=N)N)NC(=O)[C@H](CC(=O)O)NC(=O)[C@H](CCC(=O)O)NC(=O)[C@H](CCCNC(=N)N)NC1=O
B9: i7-01s-58 (Ac-[Tat]-RLIE(R8)REIVEK(S5)RKR-NH2) (peptide)
peptide: Ac-YGRKKRRQRRRRLIE[R8]REIVEK[S5]RKR-NH2
modifications: staple 16-23
SMILES: CC[C@H](C)[C@H](NC(=O)[C@H](CC(C)C)NC(=O)[C@H](CCCNC(=N)N)NC(=O)[C@H](CCCNC(=N)N)NC(=O)[C@H](CCCNC(=N)N)NC(=O)[C@H](CCCNC(=N)N)NC(=O)[C@H](CCC(N)=O)NC(=O)[C@H](CCCNC(=N)N)NC(=O)[C@H](CCCNC(=N)N)NC(=O)[C@H](CCCCN)NC(=O)[C@H](CCCCN)NC(=O)[C@H](CCCNC(=N)N)NC(=O)CNC(=O)[C@H](Cc1ccc(O)cc1)NC(C)=O)C(=O)N[C@@H](CCC(=O)O)C(=O)N[C@]1(C)CCCCCCC=CCCC[C@@](C)(C(=O)N[C@@H](CCCNC(=N)N)C(=O)N[C@@H](CCCCN)C(=O)N[C@@H](CCCNC(=N)N)C(N)=O)NC(=O)[C@H](CCCCN)NC(=O)[C@H](CCC(=O)O)NC(=O)[C@H](C(C)C)NC(=O)[C@H]([C@@H](C)CC)NC(=O)[C@H](CCC(=O)O)NC(=O)[C@H](CCCNC(=N)N)NC1=O

What follows are binders tested against T1, Beclin 1 coiled coil domain (human Beclin 1, residues 176-268) (human, UniProt Q14457 176-268) (assay: ITC, peptide titrated into Beclin 1 coiled coil domain, 25 C, one-site model).
T1 construct: range 176-268; also called Beclin 1 coiled coil domain protein
T1 sequence (Q14457 176-268 limits assumed): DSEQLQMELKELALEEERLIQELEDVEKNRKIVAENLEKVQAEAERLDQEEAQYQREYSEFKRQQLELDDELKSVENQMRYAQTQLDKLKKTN
B1 was tested, and the Kd was 2200 nM. For B2, the Kd was 860 nM. For B3, the Kd was 356000 nM. Work on B4 yielded a Kd of 2410 nM. Binder B5 has a Kd of 1410 nM. For B6, the Kd was 1290 nM. B7 was tested, and the Kd was 2140 nM. With B8 the Kd was 2030 nM. Binder B9 has a Kd of 610 nM. Binder Ac-YGRKKRRQRRRRLISEL[R8]DREKQR[S5]A-NH2 (staple 18-25) [Tat-SP4 (Ac-[Tat]-RLISEL(R8)DREKQR(S5)A-NH2)] has a Kd of 3210 nM.
